Paper doi:10.1101/2020.06.21.162990 (bioRxiv, 2020)

Biological target: the molecule itself
Experiment: SEC-MALS

B1: recombinant human ADA2 (adenosine deaminase 2), aa29-511 (enzyme, UniProt Q9NZK5 29-511, looked up)
chain: SIDETRAHLLLKEKMMRLGGRLVLNTKEELANERLMTLKIAEMKEAMRTLIFPPSMHFFQAKHLIERSQVFNILRMMPKGAALHLHDIGIVTMDWLVRNVTYRPHCHICFTPRGIMQFRFAHPTPRPSEKCSKWILLEDYRKRVQNVTEFDDSLLRNFTLVTQHPEVIYTNQNVVWSKFETIFFTISGLIHYAPVFRDYVFRSMQEFYEDNVLYMEIRARLLPVYELSGEHHDEEWSVKTYQEVAQKFVETHPEFIGIKIIYSDHRSKDVAVIAESIRMAMGLRIKFPTVVAGFDLVGHEDTGHSLHDYKEALMIPAKDGVKLPYFFHAGETDWQGTSIDRNILDALMLNTTRIGHGFALSKHPAVRTYSWKKDIPIEVCPISNQVLKLVSDLRNHPVATLMATGHPMVISSDDPAMFGAKGLSYDFYEVFMGIGGMKADLRTLKQLAMNSIKYSTLLESEKNTFMEIWKKRWDKFIADVATK
- binding result: binds
